Measurements reported in patent US20250277050A1 (MEDICAL COLLEGE OF WISCONSIN, published 2025).
Positions count from the first letter of the chain named. Each block holds one binder with its values, some of them ahead of it.

What was measured:
[1] = molecular target: T1, human CD30 expressed on the cell surface (human, UniProt P28908 19-595); assay: flow cytometry on CD30+ and CD30- cell lines
T1 construct: whole, on cells; also called huCD30; cell-surface expressed CD30
T1 sequence (looked up): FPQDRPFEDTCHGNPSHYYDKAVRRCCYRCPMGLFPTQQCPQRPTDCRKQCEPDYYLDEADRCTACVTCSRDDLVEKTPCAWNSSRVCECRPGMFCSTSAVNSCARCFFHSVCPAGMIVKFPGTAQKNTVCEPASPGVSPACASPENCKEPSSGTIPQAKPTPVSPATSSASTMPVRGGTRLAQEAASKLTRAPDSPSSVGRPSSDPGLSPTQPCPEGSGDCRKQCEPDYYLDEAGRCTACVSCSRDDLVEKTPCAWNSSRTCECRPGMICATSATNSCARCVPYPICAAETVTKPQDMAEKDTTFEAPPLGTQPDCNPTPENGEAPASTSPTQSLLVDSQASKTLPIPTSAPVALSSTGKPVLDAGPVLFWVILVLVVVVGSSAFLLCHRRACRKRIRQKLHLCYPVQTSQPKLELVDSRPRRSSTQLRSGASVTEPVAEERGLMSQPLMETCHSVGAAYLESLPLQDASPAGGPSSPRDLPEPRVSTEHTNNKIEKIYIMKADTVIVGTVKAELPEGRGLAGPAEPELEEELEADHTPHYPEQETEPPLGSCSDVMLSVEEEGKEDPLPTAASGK
Experimental: Flow cytometry analysis was preformed using purified antibody on CD30+ cell lines (SU-DHL-1, RPMI6666, […]) and a CD30− cell line (OCIAML2). A commercially available α-huCD30 antibody (clone BY88) and an isotype control were also tested.
We have employed hybridoma technology to generate novel murine anti-human CD30 mAbs. Mice were immunized and boosted with purified human GST-tagged CD30. Mouse spleen cells were then harvested and fused with myeloma cells to generate antibody secreting hybridoma. Hybridoma supernatants were screened for specificity to purified CD30 protein by ELISA, and GST specific clones were eliminated. […] Specific binding of our mAbs to cell-surface expressed CD30 was assessed by flow cytometry (FIG. 1) using 293T cells (CD30−), lentiviral transduced 293T cells expressing huCD30, and K562 cells which are naturally CD30+. The 293T (CD30−), 293T LV huCD30 (transduced with human CD30), SU-DHL-1 (lymphoma), RPMI.6666 (lymphoma) or K562 (CML) cell lines were incubated with each antibody in the form of unpurified hybridoma supernatant, and then incubated with an Alexa Fluor 647-labeled anti-mouse IgG antibody. Cell-associated fluorescence was determined by FACS.

[2] = molecular target: T1, human CD30 expressed on the cell surface; assay: flow cytometry, purified antibody on cells with CD30 surface expression

B2: 10C2 (antibody, V domains shown)
VH: QVQLEQSGPVLVKPGASVKMSCKASGYTFTDYYMNWVKQSHGKSLEWIGVINPYNGGTSYNQKFKGKATLTVDKSSSTACMELNCLTSEDSAVYYCTLGAYWGQGTSVTVSS
VL: not shown
notes: Murine anti-human CD30 monoclonal antibody from a hybridoma, detected with anti-mouse IgG; also called monoclonal antibody 10C2; anti-CD30 mAb 10C2
binding result [1]: binds

B5: 13H1 (antibody, V domains shown)
VH: QVQLQQSGTELVKPGASVKLSCKASGHTFTSYWMHWVKQRPGQGLEWIGNINPSNGGTNYNEKFKSKATLTVDKSSSTAYMQLSSLTSEDSAVYYCARRGYYGSSSYWSFDVWGTGTTVTVSS
VL: DIVMTQTPKSMSMSVGERVTLSCKASENVGTYVSWYQQKPEQSPKVLIYGASNRFTGVPDRFTGSGSATDFTLTISSVQTEDLADYHCGQSYSYPLTFGAGTKLELK
notes: Murine anti-human CD30 monoclonal antibody from a hybridoma, detected with anti-mouse IgG; also called monoclonal antibody 13H1
binding result [1]: binds

The next lines start with the values.

binding result [1]: binds
B1: 8D10 (antibody, V domains shown)
VH: QVQLQESGTELVKPGASVKLSCKASGYTFTSYWMHWMKQRPGQGLEWIGNINPSNGGTNYNEKFKNKATLTVDKSSSTAYMQLSSLTSEDSAVYYCARRDYYYGSSYGFDVWGTGTTVTVSS
VL: DIVMTQSPASQSASLGESVTITCLASQTIGTWLAWYQQKPGKSPQFLIYAATSLADGVPSRFSGSGSGTKFSFKISSLQAEDFVSYYCQQLYSTPFTFGGGTKLEIK
notes: Murine anti-human CD30 monoclonal antibody from a hybridoma, detected with anti-mouse IgG; also called monoclonal antibody 8D10; anti-CD30 mAb 8D10

binding result [2]: binds
B3: 15B8 (antibody, V domains shown)
VH: QVQLEQSGTELVKPGASVKLSCKASGYTFTSYWMHWVKQRPGQGLEWIGNINPSNGGTNYNEKFKSKATLTVDKSSSTAYMQLSSLTSEDSAIYYCARRNNYYASSPFAYWGQGTLVSVSA
VL: DIVMTQTPASLSASVGETVTITCRASGNIHNYLAWYQQKQGKSPQLLVYNAKTLADGVPSRFSGSGSGTQYSLKINSLQPEDFGSYYCQHFWSTPFTFGSGTKLEIK
notes: Murine anti-human CD30 monoclonal antibody from a hybridoma, detected with anti-mouse IgG; also called monoclonal antibody 15B8

binding result [1]: binds
B4: 12B1 (antibody, V domains shown)
VH: EVKLEESGTELVKPGASVKLSCKASGYTFTSYWMHWVKQRPGQGLEWIGNINPTNGGTNYNEKFKSKATLTVDKSSRTAYMQLSSLTSGDSAVYYCARRDFITTSGFAYWGQGTLVTVSA
VL: B3 VL with P8T, A13T, I29L, N31S, A34T, N76D, S93T
notes: Murine anti-human CD30 monoclonal antibody from a hybridoma, detected with anti-mouse IgG; also called monoclonal antibody 12B1
